These are literature values, as cited in article PMC3461832.

The target in data set [1] is fibrinogen Bβ chain 6-20 (Homo sapiens) (UniProt P02675).
Data set [2] has as its target fibrinogen Bβ chain peptide β1-25 1-25 (Homo sapiens) (UniProt P02675).

UniProt P02675, sequence (P02675 1-25): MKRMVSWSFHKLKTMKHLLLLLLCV

For SdrG (from UniProt Q9KI13), the results for the Kd in data set [1] and in data set [2] were 90 nM and 140 nM, respectively.
